± gives the uncertainty stated by the source.
Test: protein stability index of a GFP-peptide fusion (yeast GPS) (PSI 1-4); higher = more stable; sorted into four equal gates, so the index is relative within each strain
Method in brief: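 Tiled 17-residue peptides from yeast proteins were fused downstream of GFP on a plasmid that also expresses Cherry, and the pooled library was carried in yeast. Mid-log cultures grown in leucine-free medium were sorted into four equal gates by GFP/Cherry fluorescence ratio. Plasmids from each gate were PCR-amplified and Illumina-sequenced, and reads were assigned to strains by barcodes. Each peptide's protein stability index is the sum, over gates, of the gate's read frequency multiplied by its gate number.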

Row | Sequence | protein stability index (doa10∆) | protein stability index (pdr5∆) | protein stability index (san1∆) | protein stability index (ubr1∆)
1 | SGPFKVNGVPLRRVNAR [RPL6A] | 2.67 ± 0.25 | 2.84 ± 0.2 | 2.96 ± 0.24 | 2.77 ± 0.075
2 | VKQVLLSVEIGVLTDIS [NUT1] | 1.16 ± 0.063 | 1.47 ± 0.056 | 1.37 ± 0.18 | 1.64 ± 0.066
3 | VLKYMLLSKIMLNLIDD [RPN6] | 2.04 ± 0.06 | 1.49 ± 0.05 | 1.2 ± 0.098 | 1.66 ± 0.045
4 | QLYEDLCRYEDTLSKLV [MED4] | 2.62 ± 0.097 | 2.67 ± 0.16 | 2.75 ± 0.27 | 3.25 ± 0.09
5 | ESAAVYNGRGARERKTA [SNF2] | 2.55 ± 0.067 | 2.3 ± 0.057 | 2.76 ± 0.06 | 2.78 ± 0.06
6 | GKYTLGYKSTVKSLRQG [RPL30] | 2.25 ± 0.072 | 2.34 ± 0.049 | 2.54 ± 0.09 | 2.47 ± 0.048
7 | GKGRQSAKAELEKLVDH [PRE10] | 1.82 ± 0.099 | 2.19 ± 0.072 | 1.59 ± 0.28 | 1.14 ± 0.088
8 | SVALHRHSNALVDILPP [RPT3] | 1.63 ± 0.047 | 2.1 ± 0.056 | 2 ± 0.07 | 1.94 ± 0.041
9 | VLEERERGQKVKNVKNS [ARP9] | 2.71 ± 0.19 | 2.25 ± 0.078 | 2.71 ± 0.12 | 1.19 ± 0.074
10 | YSRSVDKEWVFAALSDS [SSN2] | 1.44 ± 0.088 | 1.25 ± 0.06 | 1.41 ± 0.12 | 1.3 ± 0.043
11 | PGSVNSAAKYKDMKLLR [NUT1] | 2.89 ± 0.11 | 2.87 ± 0.12 | 2.73 ± 0.13 | 2.96 ± 0.085
12 | EVRDATLNNIFRFDSIQ [GRR1] | 3.18 ± 0.26 |  | 3.38 ± 0.2 | 3.24 ± 0.24
13 | TKYFEPTSTENNKKVVG [ECM29] | 2.87 ± 0.14 | 3.19 ± 0.17 | 2.82 ± 0.13 | 2.97 ± 0.062
14 | FLVEYEGQENNYNSTSR [SIR4] | 2.85 ± 0.093 | 2.76 ± 0.08 | 2.29 ± 0.1 | 3.24 ± 0.052
15 | GCDENDSTVNKSITLKG [YDL088C/ASM4] | 3.1 ± 0.091 | 3.27 ± 0.068 | 3.32 ± 0.06 | 3.11 ± 0.066
16 | QAELLQLAVKIINKVLD [YJL039C/NUP192] | 2.33 ± 0.25 | 3.09 ± 0.091 | 2.74 ± 0.13 | 
17 | IASTLGPSAMRLSRCIR [RPC82] | 1.84 ± 0.089 | 2.46 ± 0.08 | 1.81 ± 0.083 | 2.4 ± 0.055
18 | LLFIVGQVAIKTLVYLE [YCS4] |  | 1.74 ± 0.2 |  | 3.18 ± 0.1
19 | KIFQTTPEKDLFIGLFT [YCS4] | 2.1 ± 0.088 | 1.84 ± 0.055 | 2.41 ± 0.11 | 2.58 ± 0.066
20 | NTEQGDSDELGGESMEG [SNM1] | 3.45 ± 0.1 | 3.54 ± 0.11 | 3.4 ± 0.093 | 3.39 ± 0.085
21 | SPSYSPTSPSYSPTSPS [RPO21] | 2 ± 0.032 | 2.33 ± 0.03 | 2.06 ± 0.034 | 2.1 ± 0.025
22 | WIKNEQERQRQIQKNGP [PRP8] | 2.75 ± 0.092 | 3.09 ± 0.11 | 2.85 ± 0.14 | 2.84 ± 0.094
23 | LIFGTIASKMSLAPEAD [RPT3] | 2.66 ± 0.044 | 2.78 ± 0.064 | 2.75 ± 0.041 | 2.65 ± 0.038
24 | DYSINSRYEPKVFDCGD [PRE7] | 2.73 ± 0.076 | 2.59 ± 0.053 | 2.9 ± 0.068 | 2.59 ± 0.063
25 | ELNIIPRDLLRVIIQEL [PRP28] | 1.15 ± 0.062 | 1.4 ± 0.061 | 1.38 ± 0.21 | 1.15 ± 0.045
26 | EVDSASDFISKLEYPHT [RPN3] | 2.96 ± 0.087 | 3.09 ± 0.087 | 2.93 ± 0.075 | 3.02 ± 0.079
27 | SKSESDSQIVTPGELVT [RRP4] | 3.07 ± 0.11 | 3.17 ± 0.066 | 2.88 ± 0.077 | 2.83 ± 0.066
28 | VTNDLDTSAEKDQIQAG [SIR4] | 3.32 ± 0.12 | 3.36 ± 0.12 | 3.28 ± 0.11 | 3.21 ± 0.073

From the supplement of paper PMC9732359
